Experiments:
[1] = target: BBMV proteins (receptor binding sites) in brush border membrane vesicles from fall armyworm (FAW; Spodoptera frugiperda) larval midgut; test: homologous competition: unlabeled Cry1Ab against 0.5 nM 125I Cry1Ab on FAW BBMVs
[2] = target: BBMV proteins (receptor binding sites) in brush border membrane vesicles from fall armyworm (FAW; Spodoptera frugiperda) larval midgut; test: heterologous competition: unlabeled Cry1Ab against 0.5 nM 125I Cry1Be on FAW BBMVs; reference is homologous Cry1Be
[3] = target: BBMV proteins (receptor binding sites) in brush border membrane vesicles from European corn borer (ECB; Ostrinia nubilalis) larval midgut; test: homologous competition: unlabeled Cry1Ab against 0.5 nM 125I Cry1Ab on ECB BBMVs
[4] = target: BBMV proteins (receptor binding sites) in brush border membrane vesicles from fall armyworm (FAW; Spodoptera frugiperda) larval midgut; test: heterologous competition: unlabeled Cry1Ab against 0.5 nM 125I Cry1Be on FAW BBMVs

Substance: Cry1Ab insecticidal protein (purified truncated Cry toxin) (from UniProt P0A370 29-612) (ligand)
- IC50 [1]: 0.3 nM
- fold lower affinity to compete for the binding of Cry1Be [2]: 500 fold
- IC50 [3]: 0.5 nM
- IC50 [4]: 1000 nM
